Where “and” joins values, the source holds several entries; their conditions need not be identical. Identical values can stand only once.
T1: cynomolgus OX40 on cells (cynomolgus, UniProt P43489 29-277 (human entry))
T1 construct: also called cynoOX40-CHO
T1 chain: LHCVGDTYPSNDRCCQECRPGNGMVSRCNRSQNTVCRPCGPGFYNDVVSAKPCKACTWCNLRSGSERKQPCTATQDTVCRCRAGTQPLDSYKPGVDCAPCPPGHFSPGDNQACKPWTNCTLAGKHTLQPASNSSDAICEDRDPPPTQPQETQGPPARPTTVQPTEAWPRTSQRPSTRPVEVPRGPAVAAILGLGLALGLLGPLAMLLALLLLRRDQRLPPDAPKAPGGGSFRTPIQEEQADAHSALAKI

T2: human OX40 on cells (human, UniProt P43489 29-277)
T2 construct: also called hOX40-293 cells; hOX40-HT1080
T2 sequence: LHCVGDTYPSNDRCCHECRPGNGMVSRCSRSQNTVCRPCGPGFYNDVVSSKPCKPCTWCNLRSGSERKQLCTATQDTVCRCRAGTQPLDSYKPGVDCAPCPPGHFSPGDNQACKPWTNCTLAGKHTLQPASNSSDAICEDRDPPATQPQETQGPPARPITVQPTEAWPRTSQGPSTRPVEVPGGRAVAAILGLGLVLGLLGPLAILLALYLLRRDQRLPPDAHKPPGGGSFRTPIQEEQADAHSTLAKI

T3: his-tagged soluble human OX40 (huOX40-6xhis) (human, UniProt P43489 29-214)
T3 construct: made in-house; also called Human-OX40-6XHIS; hOX40; not shown: hexahistidine tag
T3 sequence: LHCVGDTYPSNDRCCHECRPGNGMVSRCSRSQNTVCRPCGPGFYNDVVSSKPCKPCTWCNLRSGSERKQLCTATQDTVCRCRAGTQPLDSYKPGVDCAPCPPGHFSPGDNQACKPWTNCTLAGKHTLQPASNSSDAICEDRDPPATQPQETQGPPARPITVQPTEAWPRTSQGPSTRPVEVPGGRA


Columns and labels:
cynomolgus OX40 on cells [1] = target: T1, cynomolgus OX40 on cells; assay: FACS, activated cyno T cells; mean ± SD, n=3
Experimental: (§1) Briefly, cells were activated for several days before the binding assay in order to induce OX40 expression. Total leukocytes were isolated from cynomolgus macaque peripheral blood by lysis of red blood cells using an ammonium chloride buffer. The leukocytes were then cultured for four to five days with in flasks pre-coated with anti-human CD3 plus anti-human CD28 antibodies that cross-react with cynomolgus macaque, in the presence of recombinant human IL-2, in order to expand and activate T cells. On the day of the assay, the cells were harvested and stained with a titration of each anti-OX40 antibody. Bound antibodies were detected with a fluorescently conjugated anti-human IgG polyclonal secondary antibody, and the cells were co-stained for CD4 and CD25 to detect activated CD4 T cells. The fluorescence intensity of the staining was measured using a FACSCanto II flow cytometer (Becton Dickinson). The geometric mean fluorescence intensity (GMFI) or median fluorescence intensity (MedFI) of anti-OX40 antibody staining was calculated for the CD4+CD25+ population (FACSDiva software). Dose-response curves were generated and EC50s for antibody binding were calculated using GraphPad Prism software.

human OX40 on cells [2] = target: T2, human OX40 on cells; assay: FACS, activated human T cells; mean ± SD, n=5
human OX40 on cells [3] = target: T2, human OX40 on cells; assay: cell-based or functional assay
human OX40 on cells [4] = target: T2, human OX40 on cells; assay: cell-based or functional assay; remark: listed apart in the source
human OX40 on cells [5] = target: T2, human OX40 on cells; assay: immunohistochemistry, HT1080/huOX40 cells
Description: Fresh, frozen and/or OCT-embedded human tissues were purchased from multiple commercial tissue networks/vendors (Asterand Inc. Detroit, Mich.; Cooperative Human Tissue Network, Philadelphia, Pa.; ProteoGenex Inc, Culver City, Calif.). […] A nonspecific fluoresceinated human IgG1 was used as isotype control antibody. HT1080 cells stably expressing human OX40 (HT1080/huOX40) and hyperplasic human tonsil tissue sections were used as positive control cells and tissues. […] Stained slides were evaluated under a light microscope.

human OX40 on cells [6] = target: T2, human OX40 on cells; assay: FACS competition on hOX40-293 cells against biotin-OX40.4 (spike biotOX.4 @ 0.4 ug/mL, streptavidin-APC); partial inhibition, FL4-MFI falls from about 12700 to about 8800 at about 130 nM; the table gives no unit, axis in nM
Experimental: (§2) This experiment was performed to test the cross-blocking properties of various anti-OX40 antibodies to assess binding specificities. […] Cells were washed and if necessary further incubated in the presence of streptavidin-APC conjugate under the same conditions. After the final wash, cells were analyzed on a FACSCanto flow cytometer (BD Bioscience, San Jose, Calif.). Mean fluorescence intensity (MFI) signal was proportional to bound conjugated antibody.

[7] = target: T3, his-tagged soluble human OX40 …; assay: SPR, mAb captured on anti-human CH1, OX40-6XHIS analyte, 1:1 fit
Experimental: The affinity of several OX40 antibodies for soluble human OX40 was tested by SPR analysis. […] Human-OX40-6XHIS antigen in either a single concentration of 400 nM or a 1:2 serial dilution from 400 nM was used. Experiments were carried out on BIACORE® T200 or BIACORE® 3000 SPR instruments. Data was fit to a 1:1 model.

human OX40 on cells [8] = target: T2, human OX40 on cells; assay: FACS, activated human T cells; mean ± SD, n=3
Experimental: (§3) Cells were activated for several days before the binding assay in order to induce OX40 expression. Briefly, PBMCs were cultured for three or four days with magnetic beads coated with anti-human CD3 plus anti-human CD28, in the presence of recombinant human IL-2. On the day of the assay, the beads were removed and the cells stained with a titration of each anti-OX40 antibody. Bound antibodies were detected with a fluorescently conjugated anti-human IgG polyclonal secondary antibody, and the cells were co-stained for CD4 and CD25 to detect activated CD4 T cells. The fluorescence intensity of the staining was measured using a FACSCanto II flow cytometer (Becton Dickinson). The geometric mean fluorescence intensity (GMFI) or median fluorescence intensity (MedFI) of anti-OX40 antibody staining was calculated for the CD4+CD25+ population (FACSDiva software). EC₅₀s for antibody binding were calculated using GraphPad Prism software.

human OX40 on cells [9] = target: T2, human OX40 on cells; assay: FACS, blocking of OX40L-His (0.2 µg/mL) binding to hOX40-293 cells
Experimental: Briefly, 293 cells stably transfected with human OX40 were first pre-incubated with varying concentrations of anti-OX40 antibodies. […] The fluorescence intensity of the staining was measured using a FACSCanto II flow cytometer (Becton Dickinson).

cynomolgus OX40 on cells [10] = target: T1, cynomolgus OX40 on cells; assay: FACS, activated cyno CD4 T cells
Experimental: as §1
The same experiment was performed with anti-OX40 antibodies with variable region substitutions.

human OX40 on cells [11] = target: T2, human OX40 on cells; assay: FACS competition on hOX40-293 cells against biotin-OX40.5 (spike biotOX.5 @ 0.4 ug/mL, streptavidin-APC); FL4-MFI falls from about 8700 to about 3800; the table gives no unit, axis in nM
Experimental: as §2

cynomolgus OX40 on cells [12] = target: T1, cynomolgus OX40 on cells; assay: FACS, activated cyno T cells; mean ± SD, n=4
Experimental: as §1

cynomolgus OX40 on cells [13] = target: T1, cynomolgus OX40 on cells; assay: FACS, activated cyno T cells; mean ± SD, n=4; mean ± SD of n=4 experiments (Table 8), not the single experiment of FIGS. 12A and 12B
Experimental: as §1

human OX40 on cells [14] = target: T2, human OX40 on cells; assay: FACS competition on hOX40-293 cells: unlabeled antibody first, then PE-labeled L106 (2.5 ug/mL per the text)
Experimental: Briefly, 293 cells stably transfected with human OX40 were first incubated with varying concentrations of unlabeled anti-OX40 antibodies. […] The fluorescence intensity of the staining was measured using a FACSCanto II flow cytometer (Becton Dickinson).

human OX40 on cells [15] = target: T2, human OX40 on cells; assay: FACS, activated human T cells; mean ± SD, n=2
Experimental: as §3

human OX40 on cells [16] = target: T2, human OX40 on cells; assay: FACS competition on HT1080-hOX40 cells against APC-OX40.1 (FL2 MFI); the table gives no unit, axis 'Ab conc nM'
Experimental: as §2

human OX40 on cells [17] = target: T2, human OX40 on cells; assay: FACS competition on hOX40-293 cells against biotin-OX40.4 (spike biotOX.4 @ 0.4 ug/mL, streptavidin-APC); partial inhibition, FL4-MFI falls from about 12700 to about 6000; the table gives no unit, axis in nM
Experimental: as §2

human OX40 on cells [18] = target: T2, human OX40 on cells; assay: FACS competition on hOX40-293 cells against biotin-OX40.5 (spike biotOX.5 @ 0.4 ug/mL, streptavidin-APC); FL4-MFI falls from about 8700 to about 2900; the table gives no unit, axis in nM
Experimental: as §2

Binder | Proliferation EC50, CD4 T cells + CHO-CD3-CD32A (human OX40 on cells [3]) [nM] | Kd [7] [nM] | koff [7] [s⁻¹] | kon [7] [M⁻¹ s⁻¹] | EC50 (human OX40 on cells [8]) [nM] | EC50 (human OX40 on cells [9]) [nM] | EC50 (cynomolgus OX40 on cells [10]) | EC50 (cynomolgus OX40 on cells [12]) [nM] | further results
OX40.16 (antibody, human IgG1, kappa, V domains shown) VH: EVQLVQSGGGLVQPGGSLRLSCAGSGFTFSSYAMYWVRQAPGKGLEWVSAIDTDGGTFYADSVRGRFTISRDNAKNSLYLQMNSLRAEDTAVYFCARLGEGYFFDYWGQGTLVTVSS VL: EIVLTQSPATLSLSPGERATLSCRASQSVSSYLAWYQQKPGQAPRLLIYDASNRATGIPARFSGSGSGTDFTLTISSLEPEDFAVYYCQQRSNWPPTFGGGTKVEIKR | 0.017 |  |  |  |  |  |  |  | EC50 (cynomolgus OX40 on cells [1]): 0.06 nM; EC50 (human OX40 on cells [2]): 0.06 nM; IFNγ EC50, CD4 T cells + CHO-CD3-CD32A (human OX40 on cells [3]): 0.044 nM; EC50 (NK92 cell-mediated ADCC, calcein release) (human OX40 on cells [4]): 0.004 µg/mL
OX40.20 (antibody, human IgG1, kappa, V domains shown) VH: EVQLVQSGGGLVQPGGSLRLSCAGSGFTFSSYAMYWVRQAPGKGLEWVSAIDTSGGTFYADSVRGRFTISRDNAKNSLYLQMNSLRAEDTAVYFCARLGEGYFFDYWGQGTLVTVSS VL: EIVLTQSPATLSLSPGERATLSCRASQSVSSYLAWYQQKPGQAPRLLIYDASNRATGIPARFSGSGSGTDFTLTISSLEPEDFAVYYCQQRSNWPPTFGGGTKVEIKR |  |  |  |  |  |  |  |  | binding result (human OX40 on cells [5]): binds
20C1 (antibody, V domains shown, also called 20C1.F2.D1; 20C1.F2) VH: EAQLVQSGGGLVHPGGSLRLSCADSGFTFSSYAMYWVRQAPGKGLEWVSAIDTDGGTFYADSVRGRFTISRDNAKNSLYLQMNGLRAEDMAVYFCARLGEGYFFDYWGQGTLVTVSS VL: EIVLTQSPATLSLSPGERATLSCRASQSVSSYLAWYQQKPGQAPRLLIYDASNRATGIPARFSGSGSGTDFTLTISSLEPEDFAVYYCQQRSNWPPTFGGGTKVEIK | 0.008 | 3.22 | 0.000209 | 64800 | 0.1 | 0.34 | 0.068 nM | 0.17 | EC50 (human OX40 on cells [6]): 12.1 nM; EC50 (human OX40 on cells [11]): 6.13 nM; IL-2 EC50, SEB PBMC, soluble crosslinker (human OX40 on cells [4]): 1.3 to 2 nM
18E9 (antibody, V domains shown, human mAb from hybridoma; also called 18E9.G5.H4; 18E9.G5) VH: EVQLVQSGGGLVHPGGSLRLSCAHSGFTFTSSAMHWVRQAPGKGLEWISAIGTGGDTYYADSVKGRFTISRDNAKNSLYLQINSLRAEDMAVYYCARDFYDILTGIFDYWGQGTLVTVSS VL: DIQMTQSPSSVSASVGDRVTITCRASQGISSWLAWYQHKPGKAPKLLIYAASSLQSGVPSRFSGSGSGTDFTLTISSLQPEDFATYYCQQANSFPSTFGQGTKVEIK | 0.01 | 2.04 | 0.000139 | 68300 |  | 0.48 | 1 to 1.5 nM |  | EC50 (cynomolgus OX40 on cells [13]): 41.7 nM; IC50 (read off the curve) (human OX40 on cells [14]): ~1 µg/mL; EC50 (human OX40 on cells [15]): 0.22 nM
20B3 (antibody, V domains shown, also called 20B3.G12.A2; 20B3.G2) VH: EVQLVESGGGLVQPGGSLRLSCAASGFTFSSYDMHWVRQTTGKGLEWVSVIGTAGDTYYPGSVKGRFTISRENAKNSLYLQMNSLRAGDTAVYYCARGGMGNYFDYWGQGTLVTVSS VL: EIVLTQSPATLSLSPGERATLSCRASQSVSSYLAWYQQKPGQAPRLLIYDASNRATGIPARFSGSGSGTDFTLTISSLEPEDFAVYYCQQRSNWPLTFGGGTKVEIK | 0.008 | 3.71 | 0.000201 | 54200 | 0.34 | 0.93 | 1.4 nM and 1 nM to 1.5 nM (2×) | 1.18 | IC50 (human OX40 on cells [16]): 1.17 nM; EC50 (human OX40 on cells [17]): 3.86 nM; EC50 (human OX40 on cells [18]): 4.54 nM

From patent publication US20200399385A1 (Bristol-Myers Squibb, published 2020)
